Test results taken from PMC12339742.

B1: PduP encapsulation peptide with its native linker fused to the N-terminus of mNeonGreen [Salmonella enterica] / itself (parent)
chain: MNTSELETLIRTILSEQLTTPAQTPVQPQGKGIFQS

What was measured:
itself [1] = variants of: B1; test: turbidity measurement (self-assembly / condensation), NaCl titration; conditions: with itself; value read at the lowest NaCl point (est. ~12-15 mM NaCl); parent: 0.45; read off a plot
itself [2] = variants of: B1; test: turbidity measurement (self-assembly / condensation), protein concentration titration; conditions: with itself; value read at the third-highest protein concentration point (est. ~45 µM); parent: 0.45; read off a plot

Variant	response (itself [1])	response (itself [2])
MNTSELDTLIRTILSEQLTTPAQTPVQPQGKGIFQS [chain 1 E7D]	0.37	0.21
MNTSELRTLIETILSEQLTTPAQTPVQPQGKGIFQS [chain 1 E7R R11E]	0.51	0.5
MNTSELETLSRTILSEQLTTPAQTPVQPQGKGIFQS [chain 1 I10S]	0.17	–
MNTSELETLIATILSEQLTTPAQTPVQPQGKGIFQS [chain 1 R11A]	0.26	0.21
MNTSELETLIKTILSEQLTTPAQTPVQPQGKGIFQS [chain 1 R11K]	0.46	0.39
